Measurements reported in patent US20250092109A1 (XILIO DEVELOPMENT, published 2025).

B2: IL-2 V2 (ligand)
chain: APTSSSTKKTQLQLEHLLLDLQMILNGINNYKNPKLTAMLTAKFAMPKKATELKHLQCLEEALKPLEEVLNLAQSKNFHLRPRDLISNINVIVLELKGSETTFMCEYADETATIVEFLNRWITFAQSIISTLT

Experiments:
CD25 on CD25+ cells = target: T1, CD25 on CD25+ cells (UniProt P01589 22-272, limits assumed); experiment: cell-based or functional assay
T1 sequence (looked up): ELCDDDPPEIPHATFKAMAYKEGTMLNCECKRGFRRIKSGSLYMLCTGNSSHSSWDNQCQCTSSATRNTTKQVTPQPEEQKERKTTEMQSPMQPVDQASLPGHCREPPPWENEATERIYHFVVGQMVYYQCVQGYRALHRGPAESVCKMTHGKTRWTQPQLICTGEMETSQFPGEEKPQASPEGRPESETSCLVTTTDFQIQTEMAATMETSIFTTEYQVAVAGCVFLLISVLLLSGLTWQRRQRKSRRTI

IL-2 [1] = target: T2, IL-2 (UniProt P60568 21-153); experiment: SPR
T2 construct: also called interleukin 2
Target sequence in this assay (P60568 21-153 limits assumed): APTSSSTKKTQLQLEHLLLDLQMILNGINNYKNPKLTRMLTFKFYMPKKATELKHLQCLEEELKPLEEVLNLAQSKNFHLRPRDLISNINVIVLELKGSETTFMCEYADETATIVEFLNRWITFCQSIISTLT

IL-2 V2 = target: B2; experiment: cell-based or functional assay
IL-2 V3 = IL-2 V3 (Homo sapiens (Human), UniProt P60568 21-153); experiment: cell-based or functional assay
IL-2 [2] = target: T2, IL-2; experiment: SPR, criterion of kinetic Group 2

B1: IL-2 V7 (ligand)
chain: APTSSSTKKTQLQLEHLLLDLQMILNGINNYKNPKLTRMLTSKFYMPKKATELKHLQCLEESLKPLEEVLNLAQSKNFHLRPRDLISNINVIVLELKGSETTFMCEYADETATIVEFLNRWITFAQSIISTLT
Q: For B1, which “EC50 (read off the curve), %pSTAT5+ of CD4+FoxP3+CD25+ cells” value (CD25 on CD25+ cells) is on record?
A: ~3000 pM

Q: Which “EC50 (read off the curve), %pSTAT5+ of CD4+FoxP3+CD25+ cells” value (CD25 on CD25+ cells) does the source give for B2 here?
A: ~4000 pM

B3: VHH1 (VHH)
VHH: EVQLVESGGGLVQPGGSLRLSCAASGSIFSINVMGWYRQAPGKQRELVAAISSGGSTNYADSVKGRFTISRDNAKNTVYLQMNSLKPEDTAVYYCMYASSWYEDETDYWGQGTQVTVSS
notes: In the functional rows it stood as the masking moiety of constructs C7, C2, C4 and C6, fused to an Fc chain; also called Parental; parental anti-IL-2
Q: What does the source list for B3?
A: Kd (IL-2 [1]): 0.0601 nM; koff (IL-2 [1]): 3.28e-05 s⁻¹; kon (IL-2 [1]): 546000 M⁻¹ s⁻¹; EC50 (pM) of intact construct C7, HEK Blue cell-based reporter assay (IL-2 V2): 3390 pM; Fold Change (Intact/Cleaved), construct C7, HEK Blue assay (IL-2 V2): 112 fold; Fold Change (Intact/Parental), construct C7, HEK Blue assay (IL-2 V2): 101 fold; Average EC50 (nM) with MMP, construct C2, pSTAT5 on CD8+ T cells of hPBMCs (IL-2 V3): 0.23 nM; Average EC50 (nM) with MMP, construct C4, pSTAT5 on CD8+ T cells of hPBMCs (IL-2 V3): 0.26 nM; Average EC50 (nM) with MMP, construct C6, pSTAT5 on CD8+ T cells of hPBMCs (IL-2 V3): 0.28 nM; Average EC50 (nM) without MMP, construct C2, pSTAT5 on CD8+ T cells of hPBMCs (IL-2 V3): 137 nM; Average EC50 (nM) without MMP, construct C4, pSTAT5 on CD8+ T cells of hPBMCs (IL-2 V3): 136 nM; Average EC50 (nM) without MMP, construct C6, pSTAT5 on CD8+ T cells of hPBMCs (IL-2 V3): 470 nM; Fold Change (Cleaved/Unmasked Control), construct C2 (IL-2 V3): 4.2 fold; Fold Change (Cleaved/Unmasked Control), construct C4 (IL-2 V3): 4.7 fold; Fold Change (Cleaved/Unmasked Control), construct C6 (IL-2 V3): 5.1 fold; Fold Masking (Uncleaved/Unmasked Control), construct C2 (IL-2 V3): 2490 fold; Fold Masking (Uncleaved/Unmasked Control), construct C4 (IL-2 V3): 2470 fold; Fold Masking (Uncleaved/Unmasked Control), construct C6 (IL-2 V3): 8550 fold

B4: VHH46 (VHH)
VHH: EVQLVESGGGLVQPGGSLRLSCAASGSIFSINVMGWYRQAPGKQRELVAAISSGGSTNYADSVKGRFTISRDNAKNTVYLQMNSLKPEDTAVYYCMYASSWYEDETDYWGQGTQVTVSS
Q: Which results are given for B4?
A: Average EC50 (nM) with MMP, construct C5, pSTAT5 on CD8+ T cells of hPBMCs (IL-2 V3): 0.25 nM; Average EC50 (nM) without MMP, construct C5, pSTAT5 on CD8+ T cells of hPBMCs (IL-2 V3): 411 nM; Fold Change (Cleaved/Unmasked Control), construct C5 (IL-2 V3): 4.5 fold; Fold Masking (Uncleaved/Unmasked Control), construct C5 (IL-2 V3): 7470 fold

B5: VHH12 (VHH)
VHH: EVQLVESGGGLVQPGGSLRLSCAASGSIFSINVMGWYRQAPGKGRELVAAISSGGSTNYADSVKGRFTISRDNAKNTVYLQMNSLKPEDTAVYYCAYASSYYEDETDYWGQGTQVTVSS
notes: In the functional rows it stood as the masking moiety of constructs C13 and C1; also called Q44G, M96A, W101Y
Q: With B5 as the binder, how does the Kd (IL-2 [1]) read?
A: 12.7 nM

Q: What about the koff (IL-2 [1]) of the same binder?
A: 3.97 s⁻¹

Q: What about the “EC50 (pM) of intact construct C13, HEK Blue cell-based reporter assay” value (IL-2 V2) of the same binder?
A: 3130 pM

Q: And the “Fold Change (Intact/Cleaved), construct C13, HEK Blue assay” value (IL-2 V2)?
A: 158 fold

Q: And the “Fold Change (Intact/Parental), construct C13, HEK Blue assay” value (IL-2 V2)?
A: 93.1 fold

Q: And the “Average EC50 (nM) with MMP, construct C1, pSTAT5 on CD8+ T cells of hPBMCs” value (IL-2 V3)?
A: 0.051 nM

Q: And the “Average EC50 (nM) without MMP, construct C1, pSTAT5 on CD8+ T cells of hPBMCs” value (IL-2 V3)?
A: 28.1 nM

Q: And the “Fold Change (Cleaved/Unmasked Control), construct C1” value (IL-2 V3)?
A: 0.9 fold

Q: And the “Fold Masking (Uncleaved/Unmasked Control), construct C1” value (IL-2 V3)?
A: 511 fold

B6: VHH36 (VHH)
VHH: EVQLVESGGGLVQPGGSLRLSCAASGSIFSSNVMGWYRQAPGKGLELVAAISSGGSTNYADSVKGRFTISRDNAKNTVYLQMNSLKPEDTAVYYCAYASSYYEDETDYWGQGTQVTVSS
notes: In the functional rows it stood as the masking moiety of construct C11; also called I31S, Q44G, R45L, M96A, W101Y
Q: Which Kd (IL-2 [1]) does the source give for B6 here?
A: 3.99 nM

Q: And the koff (IL-2 [1])?
A: 0.00237 s⁻¹

Q: And the kon (IL-2 [1])?
A: 594000 M⁻¹ s⁻¹

Q: And the “EC50 (pM) of intact construct C11, HEK Blue cell-based reporter assay” value (IL-2 V2)?
A: 2860 pM

Q: What about the “Fold Change (Intact/Cleaved), construct C11, HEK Blue assay” value (IL-2 V2) of the same binder?
A: 118 fold

Q: What about the “Fold Change (Intact/Parental), construct C11, HEK Blue assay” value (IL-2 V2) of the same binder?
A: 84.9 fold

Q: And the “kd relative to VHH1 kd” value (IL-2 [2])?
A: > 6 fold of VHH1 kd

B7: VHH21 (VHH)
VHH: EVQLVESGGGLVQPGGSLRLSCAASGSIFSSNVMGWYRQAPGKQRELVAAISSGGSTNYADSVKGRFTISRDNAKNTVYLQMNSLKPEDTAVYYCAYASSFYEDETDYWGQGTQVTVSS
notes: also called I31S, M96A, W101F
Q: How did the “kd relative to VHH1 kd” value (IL-2 [2]) turn out when B7 was run?
A: > 6 fold of VHH1 kd

B8: VHH7 (VHH)
VHH: EVQLVESGGGLVQPGGSLRLSCAASGSIFSINVMGWYRQAPGKGLELVAAISSGGSTNYADSVKGRFTISRDNAKNTVYLQMNSLKPEDTAVYYCMYASSWYEDETDYWGQGTQVTVSS
notes: In the functional rows it stood as the masking moiety of construct C9; also called Q44G, R45L
Q: Which Kd (IL-2 [1]) does the source give for B8 here?
A: 0.187 nM

Q: What about the koff (IL-2 [1]) of the same binder?
A: 0.000111 s⁻¹

Q: And the kon (IL-2 [1])?
A: 595000 M⁻¹ s⁻¹

Q: And the “EC50 (pM) of intact construct C9, HEK Blue cell-based reporter assay” value (IL-2 V2)?
A: 6240 pM

Q: And the “Fold Change (Intact/Cleaved), construct C9, HEK Blue assay” value (IL-2 V2)?
A: 201 fold

Q: What about the “Fold Change (Intact/Parental), construct C9, HEK Blue assay” value (IL-2 V2) of the same binder?
A: 186 fold

B9: VHH6 (VHH)
VHH: EVQLVESGGGLVQPGGSLRLSCAASGSIFSINVMGWYRQAPGKGRELVAAISSGGSTNYADSVKGRFTISRDNAKNTVYLQMNSLKPEDTAVYYCMYASSWYEDETDYWGQGTQVTVSS
notes: In the functional rows it stood as the masking moiety of construct C8; also called Q44G
Q: How did the Kd (IL-2 [1]) turn out when B9 was run?
A: 0.00457 nM

Q: What about the koff (IL-2 [1]) of the same binder?
A: 2.18e-06 s⁻¹

Q: And the kon (IL-2 [1])?
A: 476000 M⁻¹ s⁻¹

Q: What about the “EC50 (pM) of intact construct C8, HEK Blue cell-based reporter assay” value (IL-2 V2) of the same binder?
A: 4270 pM

Q: What about the “Fold Change (Intact/Cleaved), construct C8, HEK Blue assay” value (IL-2 V2) of the same binder?
A: 176 fold

Q: What about the “Fold Change (Intact/Parental), construct C8, HEK Blue assay” value (IL-2 V2) of the same binder?
A: 127 fold

B10: VHH40 (VHH)
VHH: EVQLVESGGGLVQPGGSLRLSCAASGSIFSINVMGWYRQAPGKQRELVAAISSGGSTNYADSVKGRFTISRDNAKNTVYLQMNSLKPEDTAVYYCMYASSWYEDETDYRGQGTLVTVSS
notes: also called W109R, Q114L
Q: How did the “kd relative to VHH1 kd” value (IL-2 [2]) turn out when B10 was run?
A: > 6 fold of VHH1 kd

B11: VHH31 (VHH)
VHH: EVQLVESGGGLVQPGGSLRLSCAASGSIFSSNVMGWYRQAPGKGLELVAAISSGGSTNYADSVKGRFTISRDNAKNTVYLQMNSLKPEDTAVYYCAYASSFYEDETDYWGQGTQVTVSS
notes: also called I31S, Q44G, R45L, M96A, W101F
Q: With B11 as the binder, how does the “kd relative to VHH1 kd” value (IL-2 [2]) read?
A: > 6 fold of VHH1 kd

B12: VHH26 (VHH)
VHH: EVQLVESGGGLVQPGGSLRLSCAASGSIFSSNVMGWYRQAPGKQRELVAAISSGGSTNYADSVKGRFTISRDNAKNTVYLQMNSLKPEDTAVYYCAYASSYYEDETDYWGQGTQVTVSS
notes: In the functional rows it stood as the masking moiety of construct C10; also called I31S, M96A, W101Y
Q: What does the source list for B12?
A: Kd (IL-2 [1]): 1.35 nM; koff (IL-2 [1]): 0.00427 s⁻¹; kon (IL-2 [1]): 3.15e+06 M⁻¹ s⁻¹; EC50 (pM) of intact construct C10, HEK Blue cell-based reporter assay (IL-2 V2): 3970 pM; Fold Change (Intact/Cleaved), construct C10, HEK Blue assay (IL-2 V2): 202 fold; Fold Change (Intact/Parental), construct C10, HEK Blue assay (IL-2 V2): 118 fold; kd relative to VHH1 kd (IL-2 [2]): > 6 fold of VHH1 kd

B13: VHH5 (VHH)
VHH: EVQLVESGGGLVQPGGSLRLSCAASGSIFSINVMGWYRQAPGKQRELVAAISSGGSTNYADSVKGRFTISRDNAKNTVYLQMNSLKPEDTAVYYCAYASSWYEDETDYWGQGTQVTVSS
notes: also called M96A
Q: Which “kd relative to VHH1 kd” value (IL-2 [2]) does the source give for B13 here?
A: > 6 fold of VHH1 kd

B14: VHH9 (VHH)
VHH: EVQLVESGGGLVQPGGSLRLSCAASGSIFSINVMGWYRQAPGKGRELVAAISSGGSTNYADSVKGRFTISRDNAKNTVYLQMNSLKPEDTAVYYCAYASSFYEDETDYWGQGTQVTVSS
notes: In the functional rows it stood as the masking moiety of construct C12; also called Q44G, M96A, W101F
Q: B14 was tested. Which Kd (IL-2 [1]) did it give?
A: 10.9 nM

Q: And the “EC50 (pM) of intact construct C12, HEK Blue cell-based reporter assay” value (IL-2 V2)?
A: 4140 pM

Q: What about the “Fold Change (Intact/Cleaved), construct C12, HEK Blue assay” value (IL-2 V2) of the same binder?
A: 180 fold

Q: And the “Fold Change (Intact/Parental), construct C12, HEK Blue assay” value (IL-2 V2)?
A: 123 fold
